The source of these data is the supplement of paper PMC5998384.

For data set [1], the system named is HeLa Kyoto. The data set is described as follows: solubility in G1/S (NP-40 vs SDS abundance) (log2 ratio); higher = more soluble. As to conditions: cell cycle stage: G1/S.
Data set [2] relates to HeLa Kyoto. The data set is described as follows: melting temperature (median over replicates), in situ; higher = more thermally stable.
Data set [3] deals with HeLa Kyoto. As to the kind of experiment: solubility change mitosis vs G1/S (difference of NP-40 vs SDS log2 ratios) (log2 ratio difference); higher = more soluble in mitosis.
Data set [4] has as its system HeLa Kyoto. As to the kind of experiment: thermal stability score vs G1/S (z-score of summed log2 fold changes over temperatures); higher = more thermally stable than in G1/S.
Setting [5] is: cell cycle stage: early G1 (4.5 h after nocodazole release).
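Wherever melting temperature (median over replicates), in situ is given: HeLa Kyoto cells synchronized by double thymidine or nocodazole block, proteins quantified by TMT10plex mass spectrometry, three independent biological replicates.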
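Wherever solubility change mitosis vs G1/S (difference of NP-40 vs SDS log2 ratios) is given: synchronized HeLa Kyoto cells (double thymidine block for G1/S, nocodazole release for mitosis), protein amounts in NP-40 versus SDS lysates quantified by mass spectrometry, three biological replicates.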
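Wherever solubility in G1/S (NP-40 vs SDS abundance) is given: HeLa Kyoto cells arrested at G1/S by double thymidine block, proteins quantified by TMT10plex mass spectrometry in mild NP-40 versus SDS extracts, three biological replicates.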
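Wherever thermal stability score vs G1/S (z-score of summed log2 fold changes over temperatures) is given: synchronized HeLa Kyoto cells, proteins quantified by TMT10plex mass spectrometry, three biological replicates, mitosis taken 0.5 h after nocodazole release, G1/S directly after double thymidine block.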

As for “MEDYEQELCGVEDDFHNQFAAELEVLAELEGASTPSPSGVPLFTAGRPPRTFEEALARGDAASSPAPAASVGSSQGGARKRQVDADLQPAGSLPHAPRIKRPRLQVVKRLNFRSEEMEEPPPPDSSPTDITPPPSPEDLAELWGHGVSEAAADVGLTRASPAARNPVLRRPPILEDYVHVTSTEGVRAYLVLRADPMAPGVQGSLLHVPWRGGGQLDLLGVSLASLKKQVDGERRERLLQEAQKLSDTLHSLRSGEEEAAQPLGAPEEEPTDGQDASSHCLWVDEFAPRHYTELLSDDFTNRCLLKWLKLWDLVVFGHERPSRKPRPSVEPARVSKEATAPGKWKSHEQVLEEMLEAGLDPSQRPKQKVALLCGPPGLGKTTLAHVIARHAGYSVVEMNASDDRSPEVFRTRIEAATQMESVLGAGGKPNCLVIDEIDGAPVAAINVLLSILNRKGPQEVGPQGPAVPSGGGRRRRAEGGLLMRPIICICNDQFAPSLRQLKQQAFLLHFPPTLPSRLVQRLQEVSLRQGMRADPGVLAALCEKTDNDIRACINTLQFLYSRGQRELSVRDVQATRVGLKDQRRGLFSVWQEVFQLPRAQRRRVGQDPALPADTLLLGDGDAGSLTSASQRFYRVLHAAASAGEHEKVVQGLFDNFLRLRLRDSSLGAVCVALDWLAFDDLLAGAAHHSQSFQLLRYPPFLPVAFHVLFASSHTPRITFPSSQQEAQNRMSQMRNLIQTLVSGIAPATRSRATPQALLLDALCLLLDILAPKLRPVSTQLYSTREKQQLASLVGTMLAYSLTYRQERTPDGQYIYRLEPNVEELCRFPELPARKPLTYQTKQLIAREIEVEKMRRAEASARVENSPQVDGSPPGLEGLLGGIGEKGVHRPAPRNHEQRLEHIMRRAAREEQPEKDFFGRVVVRSTAVPSAGDTAPEQDSVERRMGTAVGRSEVWFRFNEGVSNAVRRSLYIRDLL [CHTF18]”, in the data set with HeLa Kyoto [1], the “solubility in G1/S (log2)” value amounted to 0.136. In addition, the melting temperature came out at 47 °C with HeLa Kyoto [2] (cell cycle stage: G1/S) and 49.3 °C with HeLa Kyoto [2] (cell cycle stage: mitosis). Moreover, in the data set with HeLa Kyoto [3], the “solubility change mitosis (log2)” value is -0.209. The values for the thermal stability score in the data set with HeLa Kyoto [4] (setting [5]) and in the data set on HeLa Kyoto [4] (cell cycle stage: mitosis) were 1.86 and 2.46, respectively.

As for “MAEMATATRLLGWRVASWRLRPPLAGFVSQRAHSLLPVDDAINGLSEEQRQLRQTMAKFLQEHLAPKAQEIDRSNEFKNLREFWKQLGNLGVLGITAPVQYGGSGLGYLEHVLVMEEISRASGAVGLSYGAHSNLCINQLVRNGNEAQKEKYLPKLISGEYIGALAMSEPNAGSDVVSMKLKAEKKGNHYILNGNKFWITNGPDADVLIVYAKTDLAAVPASRGITAFIVEKGMPGFSTSKKLDKLGMRGSNTCELIFEDCKIPAANILGHENKGVYVLMSGLDLERLVLAGGPLGLMQAVLDHTIPYLHVREAFGQKIGHFQLMQGKMADMYTRLMACRQYVYNVAKACDEGHCTAKDCAGVILYSAECATQVALDGIQCFGGNGYINDFPMGRFLRDAKLYEIGAGTSEVRRLVIGRAFNADFH [IVD]”, the “solubility in G1/S (log2)” value with HeLa Kyoto [1] turned out to be 0.138. Further, the results for the melting temperature in the data set on HeLa Kyoto [2] (cell cycle stage: G1/S) and in the data set with HeLa Kyoto [2] (cell cycle stage: mitosis) were 54 °C and 53.8 °C, respectively. Moreover, the “solubility change mitosis (log2)” value in the data set on HeLa Kyoto [3] was -0.107. For the same substance, the thermal stability score in the data set on HeLa Kyoto [4] (setting [5]) is -0.748; in the data set on HeLa Kyoto [4] (cell cycle stage: mitosis), -4.11.

For ANKHD1, the “solubility in G1/S (log2)” value in the data set with HeLa Kyoto [1] was -0.0494. The figures for the melting temperature in the data set with HeLa Kyoto [2] (cell cycle stage: G1/S) and in the data set with HeLa Kyoto [2] (cell cycle stage: mitosis) were 47.9 °C and 49.4 °C, respectively. Further, the “solubility change mitosis (log2)” value in the data set with HeLa Kyoto [3] was -0.0108. Further, the thermal stability score was determined as 0.478 with HeLa Kyoto [4] (setting [5]) and 1.9 with HeLa Kyoto [4] (cell cycle stage: mitosis).

“MGGSASSQLDEGKCAYIRGKTEAAIKNFSPYYSRQYSVAFCNHVRTEVEQQRDLTSQFLKTKPPLAPGTILYEAELSQFSEDIKKWKERYVVVKNDYAVESYENKEAYQRGAAPKCRILPAGGKVLTSEDEYNLLSDRHFPDPLASSEKENTQPFVVLPKEFPVYLWQPFFRHGYFCFHEAADQKRFSALLSDCVRHLNHDYMKQMTFEAQAFLEAVQFFRQEKGHYGSWEMITGDEIQILSNLVMEELLPTLQTDLLPKMKGKKNDRKRTWLGLLEEAYTLVQHQVSEGLSALKEECRALTKGLEGTIRSDMDQIVNSKNYLIGKIKAMVAQPAEKSCLESVQPFLASILEELMGPVSSGFSEVRVLFEKEVNEVSQNFQTTKDSVQLKEHLDRLMNLPLHSVKMEPCYTKVNLLHERLQDLKSRFRFPHIDLVVQRTQNYMQELMENAVFTFEQLLSPHLQGEASKTAVAIEKVKLRVLKQYDYDSSTIRKKIFQEALVQITLPTVQKALASTCKPELQKYEQFIFADHTNMIHVENVYEEILHQILLDETLKVIKEAAILKKHNLFEDNMALPSESVSSLTDLKPPTGSNQASPARRASAILPGVLGSETLSNEVFQESEEEKQPEVPSSLAKGESLSLPGPSPPPDGTEQVIISRVDDPVVNPVATEDTAGLPGTCSSELEFGGTLEDEEPAQEEPEPITASGSLKALRKLLTASVEVPVDSAPVMEEDTNGESHVPQENEEEEEKEPSQAAAIHPDNCEESEVSEREAQPPCPEAHGEELGGFPEVGSPASPPASGGLTEEPLGPMEGELPGEACTLTAHEGRGGKCTEEGDASQQEGCTLGSDPICLSESQVSEEQEEMGGQSSAAQATASVNAEEIKVARIHECQWVVEDAPNPDVLLSHKDDVKEGEGGQESFPELPSEE [FAM129A]”: in the data set with HeLa Kyoto [1], the “solubility in G1/S (log2)” value was determined as 0.169. The melting temperature with HeLa Kyoto [2] (cell cycle stage: G1/S) was 50 °C; in the data set with HeLa Kyoto [2] (cell cycle stage: mitosis), 49.7 °C. Besides, the “solubility change mitosis (log2)” value in the data set on HeLa Kyoto [3] was -0.0907. Moreover, the results for the thermal stability score in the data set on HeLa Kyoto [4] (setting [5]) and in the data set on HeLa Kyoto [4] (cell cycle stage: mitosis) were 1.18 and 2.35, respectively.
